Assay [1] concerns the target Cluc‐PtoE2Fa (Populus tomentosa). The assay is described as follows: split reporter (BiFC, NanoBiT); luciferase complementation imaging (LCI): firefly luciferase complementation (Nluc / Cluc fusions) in young N. benthamiana leaves; three biological replicates.
Assay [2] deals with Cluc‐PtoWAK106 (Populus tomentosa). The description is as above.
Assay [3] deals with Cluc‐PtoE2Fa (Populus tomentosa). Description: split reporter (BiFC, NanoBiT); LCI of Cluc-PtoE2Fa with PtoDPb1^Hap1/Hap2-Nluc in young N. benthamiana leaves with co-expressed PtoWAK106-GFP (compared with GFP).

Regarding PtoDPb1^Hap1‐Nluc (natural protein), the luciferase activity, percent stronger than with PtoDPb1^Hap2 in assay [1] stood at 85.8%. The substance also registered a luciferase activity, percent higher than with PtoDPb1^Hap2 in assay [2] of 37%. In assay [3], the fold increase in luciferase activity with PtoWAK106-GFP against GFP amounted to 3.61 fold and the luciferase intensity with PtoWAK106-GFP, percent higher than with PtoDPb1^Hap2 stood at 47.3%.

Substance PtoDPb1^Hap2‐Nluc (natural protein) returned a fold increase in luciferase activity with PtoWAK106-GFP against GFP in assay [3] of 3.8 fold.
